Columns and labels:
[1] = target: FITC - UL56 46-55 (HHV2) (Human herpesvirus 2 (strain HG52) (HHV-2))
[2] = target: FITC - ARRB2 370-379 (Human) (Homo Sapiens)
[3] = target: centrosomal protein of 55 kDa EABR domain (CEP55 EABR) (human) (UniProt Q53EZ4)
[4] = target: C terminal domain of polyadenylate-binding protein 1 (human) (UniProt P11940)
[5] = target: N-terminal domain of clathrin (CLTC NTD) (human) (UniProt Q00610)
[6] = target: V domain of programmed cell death 6-interacting protein (ALIX V) (human) (UniProt Q8WUM4)
Chain of V domain of programmed cell death 6-interacting protein (ALIX V) (human) (Q8WUM4 whole entry): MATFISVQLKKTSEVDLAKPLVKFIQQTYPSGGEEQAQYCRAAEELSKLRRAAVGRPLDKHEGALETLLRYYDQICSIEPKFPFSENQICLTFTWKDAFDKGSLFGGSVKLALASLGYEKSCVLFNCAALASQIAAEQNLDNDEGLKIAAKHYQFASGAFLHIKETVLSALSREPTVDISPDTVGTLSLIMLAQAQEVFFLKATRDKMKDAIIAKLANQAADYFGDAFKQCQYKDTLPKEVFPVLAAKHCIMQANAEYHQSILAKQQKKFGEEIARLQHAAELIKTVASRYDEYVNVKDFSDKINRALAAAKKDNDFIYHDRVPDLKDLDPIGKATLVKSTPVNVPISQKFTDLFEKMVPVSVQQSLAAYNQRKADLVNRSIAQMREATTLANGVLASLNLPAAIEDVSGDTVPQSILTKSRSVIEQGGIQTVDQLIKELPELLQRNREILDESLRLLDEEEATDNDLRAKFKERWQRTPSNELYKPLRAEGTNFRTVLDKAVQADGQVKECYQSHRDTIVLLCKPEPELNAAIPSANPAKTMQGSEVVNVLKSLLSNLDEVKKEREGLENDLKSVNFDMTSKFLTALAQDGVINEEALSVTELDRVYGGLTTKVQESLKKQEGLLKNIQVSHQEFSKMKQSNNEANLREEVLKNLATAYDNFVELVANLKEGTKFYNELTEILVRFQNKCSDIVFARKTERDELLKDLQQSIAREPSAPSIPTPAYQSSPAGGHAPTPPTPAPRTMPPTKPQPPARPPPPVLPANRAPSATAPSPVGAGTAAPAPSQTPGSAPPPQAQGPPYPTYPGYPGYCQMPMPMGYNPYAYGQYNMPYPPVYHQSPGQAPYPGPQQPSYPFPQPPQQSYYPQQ

[7] = target: programmed cell death 6-interacting protein (ALIX) V domain (human)
[8] = target: FITC - gag 493-502 (HIV1) (Human immunodeficiency virus type 1 group N (isolate YBF30) (HIV-1))
[9] = target: E3 ubiquitin-protein ligase NEDD4 WW4 domain (human)
Chain of E3 ubiquitin-protein ligase NEDD4 WW4 domain (human) (P46934 whole entry, the tested form may be a part): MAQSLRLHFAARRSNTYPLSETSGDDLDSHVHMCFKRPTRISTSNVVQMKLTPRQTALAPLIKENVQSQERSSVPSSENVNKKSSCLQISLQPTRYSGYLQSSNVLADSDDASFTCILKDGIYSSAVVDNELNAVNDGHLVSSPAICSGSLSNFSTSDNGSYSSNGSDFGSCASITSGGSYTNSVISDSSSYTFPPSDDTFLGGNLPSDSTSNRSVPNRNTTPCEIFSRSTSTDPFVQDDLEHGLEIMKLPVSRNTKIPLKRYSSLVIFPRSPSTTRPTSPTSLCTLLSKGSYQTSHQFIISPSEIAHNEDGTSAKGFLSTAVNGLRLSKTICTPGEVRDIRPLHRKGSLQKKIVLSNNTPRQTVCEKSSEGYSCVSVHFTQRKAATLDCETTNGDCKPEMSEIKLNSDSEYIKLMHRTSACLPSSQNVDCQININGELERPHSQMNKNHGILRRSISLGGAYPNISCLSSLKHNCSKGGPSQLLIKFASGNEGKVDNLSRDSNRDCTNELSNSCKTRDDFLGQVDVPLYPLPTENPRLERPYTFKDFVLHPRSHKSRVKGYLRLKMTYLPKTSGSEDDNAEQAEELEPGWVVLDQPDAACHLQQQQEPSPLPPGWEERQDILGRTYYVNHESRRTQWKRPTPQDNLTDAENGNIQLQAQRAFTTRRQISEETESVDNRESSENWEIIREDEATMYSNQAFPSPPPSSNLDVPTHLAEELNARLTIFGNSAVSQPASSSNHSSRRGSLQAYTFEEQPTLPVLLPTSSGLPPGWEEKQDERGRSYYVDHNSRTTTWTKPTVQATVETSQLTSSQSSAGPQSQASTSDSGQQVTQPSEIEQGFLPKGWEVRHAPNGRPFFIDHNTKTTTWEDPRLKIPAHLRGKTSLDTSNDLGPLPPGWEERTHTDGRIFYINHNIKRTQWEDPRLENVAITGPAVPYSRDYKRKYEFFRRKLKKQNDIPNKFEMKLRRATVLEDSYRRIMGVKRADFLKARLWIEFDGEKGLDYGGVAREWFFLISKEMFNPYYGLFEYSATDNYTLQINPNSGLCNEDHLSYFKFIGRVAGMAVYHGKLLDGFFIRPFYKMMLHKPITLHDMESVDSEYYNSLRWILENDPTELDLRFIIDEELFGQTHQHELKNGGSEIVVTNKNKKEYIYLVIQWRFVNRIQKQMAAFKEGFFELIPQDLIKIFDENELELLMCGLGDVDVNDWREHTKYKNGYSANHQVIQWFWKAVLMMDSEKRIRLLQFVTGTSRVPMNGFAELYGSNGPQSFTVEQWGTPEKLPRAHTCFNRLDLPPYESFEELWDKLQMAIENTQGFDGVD

[10] = target: E3 ubiquitin-protein ligase NEDD4 WW2 domain (human)
Chain of E3 ubiquitin-protein ligase NEDD4 WW2 domain (human) (P46934 whole entry, the tested form may be a part): as above

[11] = target: FITC - PDCD6IP 797-809 (Human) (Homo Sapiens)

Chain of N-terminal domain of clathrin (CLTC NTD) (human) (Q00610 whole entry, the tested form may be a part): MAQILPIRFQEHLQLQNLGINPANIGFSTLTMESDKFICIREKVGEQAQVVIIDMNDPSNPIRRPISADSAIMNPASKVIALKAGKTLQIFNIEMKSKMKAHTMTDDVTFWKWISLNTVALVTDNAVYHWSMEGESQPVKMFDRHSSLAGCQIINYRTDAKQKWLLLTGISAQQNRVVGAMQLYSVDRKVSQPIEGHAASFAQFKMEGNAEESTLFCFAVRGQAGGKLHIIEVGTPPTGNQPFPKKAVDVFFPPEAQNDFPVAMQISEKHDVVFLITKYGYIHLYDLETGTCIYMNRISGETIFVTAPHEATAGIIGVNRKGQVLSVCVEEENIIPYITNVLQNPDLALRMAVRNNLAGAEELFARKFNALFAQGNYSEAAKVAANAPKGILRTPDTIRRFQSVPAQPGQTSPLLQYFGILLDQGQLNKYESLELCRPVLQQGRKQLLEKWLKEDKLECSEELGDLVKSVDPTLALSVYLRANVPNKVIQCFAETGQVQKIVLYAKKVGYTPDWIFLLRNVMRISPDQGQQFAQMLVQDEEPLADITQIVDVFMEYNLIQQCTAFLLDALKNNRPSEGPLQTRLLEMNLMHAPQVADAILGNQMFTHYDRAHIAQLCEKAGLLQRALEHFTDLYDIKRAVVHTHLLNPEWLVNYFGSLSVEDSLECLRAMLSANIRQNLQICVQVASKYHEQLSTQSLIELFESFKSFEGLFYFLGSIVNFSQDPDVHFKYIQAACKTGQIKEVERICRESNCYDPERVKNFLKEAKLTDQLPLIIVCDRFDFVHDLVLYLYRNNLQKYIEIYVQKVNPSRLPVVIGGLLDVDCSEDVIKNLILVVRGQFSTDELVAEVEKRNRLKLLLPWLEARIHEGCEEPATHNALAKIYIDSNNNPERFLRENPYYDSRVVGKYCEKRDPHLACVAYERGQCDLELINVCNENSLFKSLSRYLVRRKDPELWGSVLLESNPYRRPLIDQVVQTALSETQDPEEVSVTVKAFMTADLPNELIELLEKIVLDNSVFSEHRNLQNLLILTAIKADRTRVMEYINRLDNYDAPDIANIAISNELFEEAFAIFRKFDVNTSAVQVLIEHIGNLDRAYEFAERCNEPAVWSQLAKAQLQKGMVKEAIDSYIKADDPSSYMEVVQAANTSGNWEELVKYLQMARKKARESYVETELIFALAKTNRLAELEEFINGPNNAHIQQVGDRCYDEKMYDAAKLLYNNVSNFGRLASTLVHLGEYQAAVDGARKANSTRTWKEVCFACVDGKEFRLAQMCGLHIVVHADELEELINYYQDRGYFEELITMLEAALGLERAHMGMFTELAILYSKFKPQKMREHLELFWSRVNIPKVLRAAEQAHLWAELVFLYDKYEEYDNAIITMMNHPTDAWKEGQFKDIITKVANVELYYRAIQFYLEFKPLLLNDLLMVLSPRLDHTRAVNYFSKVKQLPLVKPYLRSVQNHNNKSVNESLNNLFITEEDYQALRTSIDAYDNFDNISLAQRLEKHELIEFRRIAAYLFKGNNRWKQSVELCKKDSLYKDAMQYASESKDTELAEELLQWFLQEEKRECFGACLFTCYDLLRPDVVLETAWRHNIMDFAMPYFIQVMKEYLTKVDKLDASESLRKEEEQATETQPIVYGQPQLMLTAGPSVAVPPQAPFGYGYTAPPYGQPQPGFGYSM
Chain of centrosomal protein of 55 kDa EABR domain (CEP55 EABR) (human) (Q53EZ4 whole entry, the tested form may be a part): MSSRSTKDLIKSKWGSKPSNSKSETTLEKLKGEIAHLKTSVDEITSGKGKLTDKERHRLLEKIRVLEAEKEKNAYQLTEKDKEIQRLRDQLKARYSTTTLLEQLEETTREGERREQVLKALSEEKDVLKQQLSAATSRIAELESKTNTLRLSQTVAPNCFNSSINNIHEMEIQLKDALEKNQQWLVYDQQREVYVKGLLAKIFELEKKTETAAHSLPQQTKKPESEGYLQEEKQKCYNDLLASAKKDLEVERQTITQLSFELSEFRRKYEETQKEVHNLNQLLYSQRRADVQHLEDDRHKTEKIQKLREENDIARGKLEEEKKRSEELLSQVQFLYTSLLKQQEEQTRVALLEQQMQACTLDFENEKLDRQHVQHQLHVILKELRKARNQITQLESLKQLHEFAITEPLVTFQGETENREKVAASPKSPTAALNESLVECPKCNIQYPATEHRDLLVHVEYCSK
Chain of C terminal domain of polyadenylate-binding protein 1 (human) (P11940 544-623): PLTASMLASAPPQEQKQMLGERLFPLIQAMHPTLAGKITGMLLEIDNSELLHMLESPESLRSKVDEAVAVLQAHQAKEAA

Substance: E3 ubiquitin-protein ligase NEDD4 WW2 domain (domain or fragment)
- Kd [1]: 16 µM

Substance: E3 ubiquitin-protein ligase NEDD4 WW4 domain (domain or fragment)
- Kd [1]: 82 µM

Substance: N-terminal domain of clathrin (CLTC NTD) (from UniProt Q00610 1-1675) (domain or fragment)
- Kd [2]: 26 µM

Substance: NP 602-617 (REBOV) (peptide)
- Kd [3]: 2.18 µM

Substance: N_(2-17) (BeV) peptide
- fold weaker affinity than PAIP2(108-123) [4]: 10 fold

Substance: Nsp3 1765-1780 (EEEV) (peptide)
- Kd [5]: 28 µM

Substance: Nsp4 118-142 (BAV) (peptide)
- Kd [6]: 160 µM

Substance: Nsp4 119-134 (BAV) (peptide)
- Kd [6]: 101 µM

Substance: Nsp4_(118-142) (BAV) peptide
- fold weaker affinity than the syntenin-2 peptide [7]: > 300 fold

Substance: P 177-192 (RABV) (peptide)
- Kd [3]: 22.3 µM

Substance: RdRp 1840-1855 (SVV) (peptide)
- Kd [5]: 800 µM

Substance: V domain of programmed cell death 6-interacting protein (ALIX V) (from UniProt Q8WUM4 1-868) (domain or fragment)
- Kd [8]: 2.6 µM

Substance: VP40 1-20 (SEBOV) (peptide)
- Kd [9]: 68 µM
- Kd [10]: 22 µM

Substance: centrosomal protein of 55 kDa EABR domain (CEP55 EABR) (from UniProt Q53EZ4 1-464) (domain or fragment)
- Kd [11]: 0.31 µM

Substance: mu-NS 705-720 (MRV1) (peptide)
- Kd [5]: 34 µM

From publication PMC10132805
